According to patent US11872261B2, “Lipoprotein targeting protease inhibitors and uses” (The United States of America, as represented by the …, priority 2016, dated 2024):
No end group written: not given here. PEG2000 = poly(ethylene) glycol, 2000; VitE = vitamin E (alpha tocopherol)

Legend:
reconstituted HDL (rHDL) = target: T1, reconstituted HDL (rHDL) (Homo sapiens, UniProt P02647); experiment: Binding of A1AT to reconstituted HDL, size exclusion chromatography; conditions: gel filtration profile, HDL containing apoA-I and phospholipids
T1 construct: Reconstituted HDL was prepared by cholate dialysis method, using human purified apolipoprotein A-I; from tissue
Protocol: FIG. 7A-7B. Alpha-1-antitrypsin has reduced anti-elastase activity when bound to reconstituted HDL. Reconstituted HDL (rHDL) were prepared from apoA-I and phospholipids by cholate dialysis and then co-incubated with alpha-1-antitrypsin (A1AT) to generate A1AT enriched rHDL. (FIG. 7A) Size exclusion chromatography on tandem Superdex 200 columns was used to isolate HDL bound A1AT from lipid free protein. (FIG. 7B) The ability of lipid free and rHDL bound A1AT to inhibit neutrophil elastase (NE) activity was measured by fluorometric assay.
Reconstituted HDL was prepared by cholate dialysis method, using human purified apolipoprotein A-I and 1-palmitoyl-2-oleoyl-sn-glycero-3-phosphocholine (Avanti) as previously described (Matz & Jonas, J Biol Chem 257: 4535-4540, 1982). Native human HDL was isolated from plasma by sequential density gradient ultracentrifugation (Chapman et al., J Lipid Res 22: 339-358, 1981). Reconstituted or native HDL was co-incubated with alpha-1-antitrypsin protein (Human, Sigma Aldrich) overnight at 37° C. Unbound A1AT was removed by filtration, using Amicon Ultra 100 kDa centrifugal filter units (Millipore). Elastase activity assays were performed with the EnzChek® elastase assay kit (Life Technologies). […]

[1] = target: T2, porcine pancreatic elastase (PPE) (Sus scrofa, UniProt P00772); experiment: Elastase inhibition of the cell treatments in a cell-free assay; type: biochemical; conditions: same treatments as for J774 cells
T2 construct: incubated with elastase (porcine pancreas, Sigma Aldrich, 500 nM) for 4 hours; purchased Sigma Aldrich; host or cells: porcine pancreas
Protocol: FIG. 9A-9E. Alpha-1-antitrypsin enriched HDL prevents elastase induced TNF-α production by macrophages. (FIG. 9A) J774 mouse macrophages treated with increasing amounts of porcine pancreatic elastase (PPE) or heat inactivated elastase for 4 hours, TNF-α in the culture media was measured by ELISA. (FIG. 9B) J774 cells pretreated with PBS, isolated human HDL (nHDL), the same HDL enriched with alpha-1-antitrypsin (A1AT nHDL), or lipid free A1AT for 1 hour prior to PPE addition. (FIG. 9C) The ability of each of the cell treatments to inhibit elastase activity was measured in a cell-free assay. (FIG. 9D) Treatments were pre-incubated with PPE prior to addition to cells and TNF-α was measured in the culture media after 4 hours. (FIG. 9E) J774 cells were pre-incubated with each treatment for 1 hour; cells were then washed twice with PBS and placed in fresh media containing PPE and TNF-α was measured in the culture media after 4 hours. All experiments were repeated at least 3 times and were done in triplicates. Treatments were compared using one-way ANOVA and Tukey's multiple comparisons test, p<0.05 was considered significant. The letters above each treatment indicate statistical significance; within each graph, bars bearing different letters were statistically different from each other. […]

J774 mouse macrophages = experiment: Elastase induced TNF-α production by J774 macrophages; type: cell-based
Protocol: FIG. 9A-9E. Alpha-1-antitrypsin enriched HDL prevents elastase induced TNF-α production by macrophages. (FIG. 9A) J774 mouse macrophages treated with increasing amounts of porcine pancreatic elastase (PPE) or heat inactivated elastase for 4 hours, TNF-α in the culture media was measured by ELISA. (FIG. 9B) J774 cells pretreated with PBS, isolated human HDL (nHDL), the same HDL enriched with alpha-1-antitrypsin (A1AT nHDL), or lipid free A1AT for 1 hour prior to PPE addition. (FIG. 9C) The ability of each of the cell treatments to inhibit elastase activity was measured in a cell-free assay. (FIG. 9D) Treatments were pre-incubated with PPE prior to addition to cells and TNF-α was measured in the culture media after 4 hours. (FIG. 9E) J774 cells were pre-incubated with each treatment for 1 hour; cells were then washed twice with PBS and placed in fresh media containing PPE and TNF-α was measured in the culture media after 4 hours. All experiments were repeated at least 3 times and were done in triplicates. Treatments were compared using one-way ANOVA and Tukey's multiple comparisons test, p<0.05 was considered significant. The letters above each treatment indicate statistical significance; within each graph, bars bearing different letters were statistically different from each other.
J774 mouse macrophages were used to examine the potential functional role of alpha-1-antitrypsin enriched HDL in inflammation. For these experiments, cells were plated in 12-well culture plates at a density of 1×10^5 cells/well two days prior to the experiment. Cells were washed twice with PBS and placed in serum-free media for 1 hour prior to addition of treatment. Treatments (PBS, nHDL, A1AT-HDL or A1AT) were added to serum-free culture media: HDL protein was matched for nHDL and A1AT-nHDL at a final concentration of 200 μg/mL. A1AT concentration was matched between free A1AT and A1AT-nHDL at a final concentration of 2 μM. Cells were then incubated with elastase (porcine pancreas, Sigma Aldrich, 500 nM) for 4 hours and media was collected and centrifuged at 3,000×g for 5 min to pellet any loose cells or debris and supernatant was transferred to fresh tubes and stored at −80° C. until further analysis. Elisa assays for mouse TNF-α (BioLegend) were performed on cell culture media.
Next, J774 cells were pre-incubated with PBS, native HDL (nHDL), A1AT enriched nHDL, or lipid-free A1AT for 1 hour prior to the addition of elastase to the culture media to allow for […] of A1AT.

elastase = target: T3, elastase (Sus scrofa, UniProt P00772); experiment: EnzChek elastase inhibitor assay (Example 3); type: biochemical; conditions: EnzChek Elastase Assay Kit
T3 construct: purchased Molecular Probes E-12056
Excerpt: Elastase Inhibitor Assay.

HDL = experiment: E-AAPV coincubated with purified human HDL, HDL repurified and tested for elastase inhibitor activity; type: binding; conditions: coincubated 30 minutes at 37° C., HDL repurified by size-exclusion chromatography
Protocol: Isolated Human HDL was co-incubated with the E-AAPV (SEQ ID NO: 5) peptide for 30 minutes at 37° C. and then HDL was reisolated by FPLC to remove unbound E-AAPV (SEQ ID NO: 5). The HDL was then tested for elastase inhibition activity and compared to control HDL which was coincubated with PBS (no peptide) and repurified. Sampes were matched based on phospholipid content.
E-AAPV peptide binds HDL and confers elastase inhibitor activity. The reaction product (E-AAPV; SEQ ID NO: 5) was coincubated with purified human HDL for 30 minutes at 37° C. followed by repurification of HDL by size-exclusion chromatography to remove unbound E-AAPV (SEQ ID NO: 5) peptide. The repurified HDL was then tested for elastase inhibitor activity using the assay described above.
E-AAPV (SEQ ID NO: 5)-loaded HDL was compared to the same HDL that was coincubated with buffer only (No peptide). The HDL and HDL+E-AAPV (SEQ ID NO: 5) were normalized based on phospholipid content, determined by colorimetric assay, prior to measurement of elastase activity.

T3 sequence (P00772 27-266): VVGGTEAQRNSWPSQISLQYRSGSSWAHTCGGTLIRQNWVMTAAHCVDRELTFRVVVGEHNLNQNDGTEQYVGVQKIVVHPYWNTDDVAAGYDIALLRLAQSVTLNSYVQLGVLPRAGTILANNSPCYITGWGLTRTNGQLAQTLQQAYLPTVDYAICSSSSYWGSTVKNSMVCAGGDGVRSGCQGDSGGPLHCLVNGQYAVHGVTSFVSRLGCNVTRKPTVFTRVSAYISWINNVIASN
T1 sequence (P02647 25-267): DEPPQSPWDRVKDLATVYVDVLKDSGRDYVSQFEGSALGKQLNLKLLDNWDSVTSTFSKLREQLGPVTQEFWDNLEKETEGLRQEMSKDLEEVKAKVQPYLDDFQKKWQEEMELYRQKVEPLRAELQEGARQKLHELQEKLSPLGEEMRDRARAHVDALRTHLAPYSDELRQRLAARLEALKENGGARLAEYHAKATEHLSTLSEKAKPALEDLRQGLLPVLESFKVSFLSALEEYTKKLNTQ
T2 sequence (P00772 27-266): as the sequence (P00772 27-266) above

inhibition of elastase activity in a cell-free system [1]	protection against elastase induced TNF-α production (J774 mouse macrophages; pretreated 1 hour prior to elastase, A1AT 2 μM)	protection against elastase induced TNF-α production after removal of treatment (J774 mouse macrophages; pretreated 1 hour, cells washed, fresh media containing elastase)	elastase inhibitor activity (elastase; listed as VitE-PEG-AAPV)	binding to HDL (HDL)	Substance	association of A1AT with discoidal reconstituted HDL (reconstituted HDL (rHDL))	proteolytic degradation of A1AT in cell culture media, western blot (J774 mouse macrophages; J774 cell culture media)	inhibition of elastase induced TNF-α production, treatment pre-incubated with elastase (J774 mouse macrophages; pre-incubated with elastase prior to addition to the cells)	elastase inhibitor activity (elastase)
significant anti-elastase activity	no significant protection	no effect			A1AT: alpha-1-antitrypsin protein (Human, Sigma Aldrich), serine protease inhibitor	a significant fraction of A1AT associates with HDL	no evidence of proteolytic degradation	readily able to inhibit elastase induced TNF-α production	
			retains elastase inhibitor activity	binds HDL	VitE-PEG-Ala-Ala-Pro-Val ({VitE-PEG2000}-AAPV) [E-AAPV, vitamin E linked to the A1AT linear peptide AAPV via a PEG2000 linker]				does not affect elastase inhibition activity
